Among the data in a protein production outcome set (Wang et al. 2014) are protein production values, retold here.

The nature of this data set: label from the status in PepcDB records.
For “MEKPDINVAEAWEQYWNKTLVNATPVLWDANVERAVVVDLPRFQSFFDTELPLIDFACGNGTQTKFLSQFFPRVIGFDVSKTALEMASKENTAANISYRLLDGLVPEQAAQIHSEIGDANIYMRTGFHHIPVEKRELLAQSLRTLLGKQGVMYLIELGTGCIEFFNSLLEKYGKLPYELSLVMEHGIRPGIFTTEDIELYFPDFEILSQGESLFQSIHKLPDGNYATPPAFWAVIKRHLEHHHHHH”, the protein production result is recorded as “not failed”.

In the case of “METSSSSPVKPRRKDKDEDKFRIGATLAFIVVIIGIGVPMWWRTTTVYRVNLPSTEILSLSKIPIKTAVQVAIYTQQTSRGQLLIAELQNAFSDNEIWSVEFKQLSPTPMTQEAHTPAALEKLLLENHVQSVGDFMFIEWPKLQEELLLTTERSALMRSDTPSNKIAQLLHAKILQTYRINQILSTDERMGAKSEAPQPAYDVIVSVLNPKPRLTHAKWNIAMAVKTYIEPWLAKVSGVSNYTVRSQWKYRVAIEADLKQVRDQSKLGRHYALQETALPHLLTSIAQNLSASTTDKPAINLVVYIPPCHIAPLHIYNSKDQRLTRNDVDAFISPPWGGFIIANPPEHVCLAAMSDQEAVPYHVSTTDNMQVMLDQLHKLLDISSELQMEGVKVVDIEQLEPRRWEYEAYLRRSAIRHISTASSTLQSLIKLLDQISYIVIDDEVGAAITNSYADILAAKAALLEHRLADASVLAKRAFVASERGFFDASLLAQLYFPDEQKYAIYIPLFLPIMVPVLSSFNMLRGVLQARRKEKQS”, the protein production entry is “failed”.

Consider “STRFPGVAIYLVEPRMGRSRRAFLTGLARSKGFRVLDACSSEATHVVMEETSAEEAVSWQERRMAAAPPGCTPPALLDISWLTESLGAGQPVPVECRHRLEVAGPRKGPLSPAWMPAYAC”, for which the protein production entry is listed as “not failed”.

Take “MVTNMVKLRNLRRLYCSSRLLRTIQNGRISSVSSISLSKKYTTKSAKEGEENVERKHEEEKKDTLKSSSVPTSRISRLFHYGSLAAGVGMNAAAKGISEVAKGNSPTWKSLILSDSNIDRITNKFSKMRGVALKIGQLLSFQDEKVLPKELYEILSRVQNSANHMPQRQLEKVMAKELGANWKTKFSKFDKIPMAAASIGQVHAAELPSGQRVVVKIQYPGVKESIDSDLNSLLMLLTASSLLPKGLFLDKTIANARTELKWECDYNREARALQKFEALLKDDPAFEVPHVFPEYTTDNIITATRMEGTEIMKLPKASQETKNFISENIMRLCLEEIATFKYMQTDPNWANFLYNGRTKKIELLDFGASRPFAEDFILKYRKLLTYATLRDRKGAYEMSVQLGYLTGLESQSMKDAHVDSVLTLGEPFRGDVDKSFDFKDQTVSDRIRGNIGLMLNERLCPPPEETYSLHRKFSGIFLLCARMGASVHCAKLFKEIFAYKV”: the protein production entry is “failed”.

For “MSEAKELIKKMCDLQNSNEEIQKEMAGWSGVVQYKLDGYYFYVEYKSDGTCEFKEGVHSSPTFTVVAPPDFWLAVLKGQEDPVSGFMMGKYRIEGNIMEAQRLAGVIKKFQGKFEL”, the protein production result is “not failed”.

Regarding “VRLRNLVESDRERLLIWRNSPDVSAYMYSDHKIGHEEHDHWFDVARHDPRRRYWIIEADGEPVGLANLADIDLVHRRCAWAYYLASPKVRGLGVGSFVEFQIIEYVFNQLHLNKLWCEVLISNESVWRLHELYGFQREALFRQHVMKQGHEVDVIGLGLLASDWAARR”, the protein production entry is on record as “failed”.

With “MGTIILTWNIQWGRGADGRVDLSRMLAEARAMGSFDVLCLQEVTSGFGHLPGQPGEDQWQELAGALGQAFTLIDGIALERHEGAQIRRFGNAIATRLPVLHVARHALPCPADAGPTMPRMAIEAIVQAPFGPLRVVSTHLEYYSETQRIAQIDALRALHVEGCMRAAHPPTLGPEPTDGPFRPLAQTRATVICGDFNCKPDSKPKRLATVPFSHEAAALYDAWETAHGPTPQPPTFGVHDRTGWTEPAYACDFMLVSEPLKTRVTRVEVNSTTQASDHQPTLLELRDAE”, the protein production entry is “failed”.

Regarding “MEELVGLLRIRVKRGINLAQRDTLSSDPFVVITMGSQKLKTRVVENNCNPEWNEELTLALRHPDEPVNLIVYDKDTFTSHDKMGDAKIDIKPFLEVHKMGLQELPDGTEIKRVVPNRENCLAEASSIVSNNGKIVQNMILLLRNVECGEVEIQLEWIDIPGSRGL”, the protein production result is given as “failed”.

Consider “MSNTVRAISPDITLFNKTLTFQEISQNTREAVIYIHGGAWNDPENTPNDFNQLANTIKSMDTESTVCQYSIEYRLSPEITNPRNLYDAVSNITRLVKEKGLTNINMVGHSVGATFIWQILAALKDPQEKMSEAQLQMLGLLQIVKRVFLLDGIYSLKELLVEYPEYDCFTRLAFPDGIQMYEEEPSRVMPYVKKALSRFSIDMHLVHSYSDELLTLRQTNCLISCLQDYQLSFKLYLDDLGLHNDVYKNGKVAKYIFDNIC”, for which the protein production result is reported as “not failed”.

As to “MTRIASHRGGTLEFGDSTPHGFTATAAMALEEVEFDLHPTADGAIVVHHDPTLDATTDMTGAIVDMTLAKVKTATIRYGAGSHPMTLEELCALYVDSHVNFRCEIKPGVDGLPYEGFVALVIAGLERHSMLERTTFSSFLLASMDELWKATTRPRLWLVSPSVLQQLGPGAVIETAIAHSIHEIGVHIDTADAGLMAQVQAAGLDFGCWAAHTPSQITKALDLGVKVFTTDRPTLAIALRTEHRMEASV”, the protein production entry is on record as “not failed”.

As to “MKLRHCLIIVFACCAALWSESPSIADDAVRTSLAGLEWHVVTDVWPPFRIEQETGLVGIDVDILKALSTSLGLRLRISRAPWGRCLKMLETGAADAMIGLAKSAEREVYIRYVPTSYYTCSPRFYILAGARRAVLTYDDLEGMRVGYVAQSRYFEPFDSDTKLQKYAVPTERQLLELLLAGRVDVMVGTDCQVDYELAEAGLLERVVVAPYRPDAHTRLYLGFSRKSRFVPRIALFDDAMRDLLEKGALKQIRASYLPDSSVSGR”, the protein production result is recorded as “failed”.

Regarding “MGTPAERWERARMFFDAKDYAAAARVLDGLVAQVPEQTGPRLLLARSYYHSAQLRRAEAELRVVVERDPVEHYARLMLGRTLERQGRQEEADAQLRIASALAGLEHHHHHH”, the protein production entry is listed as “failed”.

Turning to “MHRLRNLREDVSDGSLGHGGGGLMYDVVVVGAGPAGSMAAKTAAEQGLKVLLVEKRQEIGTPVRCAEGISRESIEKFFEVDKKWIAAEVTGAKIYAPNKTEIVMSEEMAGNEVGYVLERKIFDRHVARLAAKAGAEVYVKTAMVDFERKDGKVKVKLRRLGEDWEVETKILIGADGVESKIGRKAGIIKTLKLNEVESCAQYLMTGLDIDESYTYFYLGRELAPGGYAWIFPKGNGSANVGIGVLPKMAERTAKEYLDAFIEKEGIEGKIVEFVAGAVPVYGEIETAVADNIMLAGDAAYHADPITGGGIANALSAGYYAGKVAAEAVQKNDFSADFLRRYDELWKNDFGKKLRRNKKLQLKFIDMDDALLNKLAGAIAGKNLREMSVAAIVKELLKAHPKLLWDLKDLFLEHHHHHH”, the protein production entry is reported as “not failed”.

“MDTRFCSSLLIKNLNTFPASNKEIMNVTVSEAERNAGDERPDLQACAEAYAIVNSAFTKAVTFFKQAYYSKIVNIEKKVSMAVDICKTDFNVLGYQINPLIEKNRQTKILLSMEQIVSHMVSS”: the protein production result is “failed”.

With “MNNFVSELQSYFASKYPFLSANIPRQQQLLGDSWSQEFDGELIKHFGTIEELRTAADGYAKFAMDSLLLTAKFQKTKDYDNKTYAECASEVYQSESYMHSLYLPGILLSHYLWKHHYAMYQFYKSIVVPVLPKSGLFIDVGVGTGFYSRNLLRDSQMTGIGCDMSPHSLSYTRSTLSKFGTVDKYSFCLCDYYHFNQYFQSTADFILSIEVLEHLEDPMKMLESLYKSLKPGGLGLISAAVNAPNADHIYLYRSCEDVRHQLIKAGFEIRHDTCDEAYEARTIGEVVPVNYGALVCKPS”, the protein production entry is “failed”.

Regarding “MRVEIWSDIACPWCYVGKARFEKALAAFPHRDGVEVVHRSFELDPGRAKDDVQPVLTMLTAKYGMSQEQAQAGEDNLGAQAAAEGLAYRTRDRDHGSTFDLHRLLHLAKERGRHEALLDAFYRGNFADERSVFNDDERLVELAVGAGLDAEEVRAVLADPAAYADEVRADEREAAQLGATGVPFFVLDRAYGVSGAQPAEVFTQALTQAWGERTPLKLIDDGGAEACGPDGCAVPGH”, the protein production result is reported as “not failed”.

Take “MGHHHHHHSHMTDCEFGYIYRLAQDYLQCVLQIPQPGSGPSKTSRVLQNVAFSVQKEVEKNLKSCLDNVNVVSVDTARTLFNQVMEKEFEDGIINWGRIVTIFAFEGILIKKLLRQQIAPDVDTYKEISYFVAEFIMNNTGEWIRQNGGWENGFVKKFEPK”: the protein production entry was “not failed”.

Turning to “MNIQSILSDKIKQAMILAGADQSCDALIRQSGKPQFGDYQANGIMAAAKKLGLNPREFAQKVLDNLQLSDIAEKLEIAGPGFINIFLNPTWLTTEISAALSHK”, the protein production entry is reported as “failed”.

In the case of “MGIIERIKEIEAEMARTQKNKATEYHLGQLKAKIAKLRTQLLEPPKGASGGGEGFEVTKYGHGRVALIGFPSVGKSTLLTMLTGTHSEAASYEFTTLTCIPGVIHYNDTKIQLLDLPGIIEGASEGKGRGRQVIAVAKSSDLVLMVLDASKSEGHRQILTKELEAVGLRLNKTPPQIYFKKKKTGGISFNTTAPLTHIDEKLCYQILHEYKIHNAEVLFRENATVDDFIDVIEGNRKYIKCVYVYNKIDVVGIDDVDRLSRQPNSIVISCNLKLNLDRLLARMWDEMGLVRVYSKPQGQQPDFDEPFVLSSDRGGCTVEDFCNHVHRTLVKDMKYALVWGTSTRHNPQNCGLSQHLEDEDVVQIVKKKERDEGGRGRFKSHSNAPARIADREKKAPLKQ”, the protein production entry is given as “failed”.

Take “MEIFFTILILTLVVSLSGVVTRILPFQVPLPLMQIALGAILAWPQFGLHVDFNPELFMVLFIPPLLFADGWKTPTREFLRHGREIIGLALVLVLITVVGIGYFIYWMVPGMPLIAAFALAAVLSPTDAVALSGIVGEGRIPKKLMGILQGEALMNDASGLVSLKFAVAIAMGTMVFTVSGATLEFVQVALGGLLAGVGVTWIFGKSLRVISRWSGDDAATQIVLLLLLPFASYLIAEHIGVSGILAAVAAGMTIGQSGVIRSAPLTMRMRANGVWSMLEFVFNGMVFIMLGLQLPDILETSVTQAELDPTVETWMLFTDIAIIYGALLLLRFSWLWVMRTYSVHIQKKRPMVFAEFSTRELWIASFAGVRGAITLAGVLSIPLLLTDGTAFPSRYQLVFIATGVILFSLLCGVLALPFLLRGVVVADKAAHAKEIRMARMAVAEVAIKSMHKMEERLAADREENIDEQVLKEVSARVIGNLRRRLINKDDPENGLLIENLERRFRLTALNSERAELYHLRATQQISNETLQKMLRDLDLMEALLIENE”: the protein production result is recorded as “failed”.

“MLPHSGRMVLIDRITRYGDDFVEAGAQVKPDHILLAGGMLPYTAFIELMAQAVGAYAGIQARKNARPVRLGFLPGTRKLEIFAQSVPVGTHLPATAHMSIQDAGVWACPTANCVGRMRRKLRPEHSFQTAFWHAPHSTCTAPNTMTEQLTPSEQAHIRRTTMTETVLITGSNRGIGKAAALEHHHHHH”: the protein production result was “failed”.

As for “MANATFSADKLKQLTLQITKLARVAGDFQINELKNFERSNIEHKGRSNDLVSYVDKETEKLLIESLTKLVPEAGFETEEGTVEQTQSGLRWIIDPLDGTTNFLHKLPLFSISIALVQDETLLIGVVHEPSRNECFYAWKNGGAYMNGERIETSSITEISDALIATGFPYSLRGKSDQYFTLIRHFVETTHGVRRLGSAAIDLCYVACGRFEAYFEFNLKPWDVAAGILIVREAGGIVSNYSGGDDHCQTAEEVCAAGRHIHPLMIDTFKKIW”, the protein production result is recorded as “failed”.
